B2: GST-VAMP8 (VAMP8 residues 1-76, full cytoplasmic portion) (domain or fragment, mouse, UniProt O70404 1-76, looked up)
chain: MEEASGSAGNDRVRNLQSEVEGVKNIMTQNVERILSRGENLDHLRNKTEDLEATSEHFKTTSQKVARKFWWKNVKM
notes: VAMP8, mouse, residues 1-76 (full cytoplasmic portion); Construct pGEX 4T2 VAMP8_(1-76); GST of pGEX vectors is N-terminal (surmise); also called VAMP8_(1-76); wt GSTVAMP8; source: E. coli BL21(DE3) pLysS, purified (glutathione sepharose, S200 gel filtration)
B3: GSTVAMP8 K24AM27A (domain or fragment, mouse, UniProt O70404 1-76, looked up)
chain: MEEASGSAGNDRVRNLQSEVEGVANIATQNVERILSRGENLDHLRNKTEDLEATSEHFKTTSQKVARKFWWKNVKM
notes: VAMP8, mouse, residues 1-76; pGEX 4T2 VAMP8_(1-76) (mouse) 'and mutants thereof'; also called K24AM27A VAMP8; Lys24AlaMet27Ala mutant of VAMP8; source: E. coli BL21(DE3) pLysS, purified (glutathione sepharose, S200 gel filtration)

Several values for one entry are separate records, joined by “and”; a condition that tells them apart may be missing. Equal values may be shown once.

Data set [1] deals with the molecule itself. Description: SEC-MALS; analytical S200 10/300 column, 20 mM HEPES pH 7.4, 120 mM NaCl, 4 mM DTT, 0.5 mL/min, inline MALS. For orientation: Size exclusion chromatography separates by hydrodynamic size, large species first.
The target in the next data set is T1, SNAP23, GST cleaved (human, UniProt O00161 1-211).
T1 construct: SNAP23, human; Construct pGEX 4T1 SNAP23 (human); source: E. coli BL21(DE3) pLysS, purified (glutathione sepharose, thrombin cleavage of GST); not shown: GST, N-terminal, cleaved
T1 sequence (looked up): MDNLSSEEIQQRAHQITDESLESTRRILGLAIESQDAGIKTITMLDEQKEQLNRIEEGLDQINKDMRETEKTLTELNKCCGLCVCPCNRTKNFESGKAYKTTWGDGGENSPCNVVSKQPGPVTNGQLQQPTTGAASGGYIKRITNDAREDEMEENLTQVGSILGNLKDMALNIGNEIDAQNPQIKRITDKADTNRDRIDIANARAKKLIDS
The data set is described as follows: pull-down; SNARE complex formation: GST-VAMP8 incubated with a three fold molar excess of SNAP23 and syntaxin3 at 4°C for 48 hr in 20 mM HEPES pH 7.4, 500 mM NaCl, 4 mM DTT, 0.5% NP-40; purified on glutathione-sepharose, then S200 gel filtration. Particulars: both partners purified.

Data set [2] has as its target T2, His6MycCALM_(ANTH) (CALM ANTH domain, residues 1-289) (rat, UniProt O55012 1-289).
T2 construct: source: E. coli BL21(DE3) pLysS, purified (Ni2+-NTA agarose, S200 gel filtration)
T2 sequence (looked up): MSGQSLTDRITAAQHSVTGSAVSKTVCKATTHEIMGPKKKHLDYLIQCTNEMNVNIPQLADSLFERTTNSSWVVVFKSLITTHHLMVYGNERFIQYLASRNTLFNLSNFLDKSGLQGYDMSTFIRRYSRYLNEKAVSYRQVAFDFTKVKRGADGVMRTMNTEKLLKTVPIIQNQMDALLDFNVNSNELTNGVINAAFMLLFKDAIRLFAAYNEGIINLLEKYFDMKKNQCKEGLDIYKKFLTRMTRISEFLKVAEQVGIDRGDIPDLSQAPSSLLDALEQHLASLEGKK
The data set is described as follows: ITC; VPiTC; 2 mM His6MycCALM_(ANTH) (WT or mutant) or GST cleaved Epsin_(ENTH) titrated in 37 injections of 4-8 μL into 0.15 mM GST-SNARE in the cell; 100 mM HEPES pH 7.4, 150 mM NaCl, 4 mM DTT; legends give a representative run with SEM of the fit, the text the average of all runs. As to conditions: both partners purified. (In ITC the heat of successive injections is recorded.)

Data set [3] addresses T3, CALM_(ANTH(1-289)), GST cleaved (rat, UniProt O55012 1-289).
T3 construct: analyte of the liposome-based SPR and crystallised as 3ZYK; also called GST cleaved CALM_(ANTH); source: E. coli BL21(DE3) pLysS, purified (glutathione sepharose, thrombin cleavage of GST, S200 gel filtration); not shown: GST, N-terminal, cleaved
T3 sequence (looked up): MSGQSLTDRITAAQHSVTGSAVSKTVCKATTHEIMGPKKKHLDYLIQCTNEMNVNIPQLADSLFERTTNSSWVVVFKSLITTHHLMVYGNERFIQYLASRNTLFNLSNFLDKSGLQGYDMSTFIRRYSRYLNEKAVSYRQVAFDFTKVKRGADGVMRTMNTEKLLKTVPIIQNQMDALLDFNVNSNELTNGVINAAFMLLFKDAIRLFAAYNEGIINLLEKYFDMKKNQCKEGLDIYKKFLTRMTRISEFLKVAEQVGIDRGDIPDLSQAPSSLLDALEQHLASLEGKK
The data set is described as follows: SPR; liposome-based SPR, Biacore 3000, L1 chip; PC/PE + 5% DGS-NTA(Ni) liposomes with captured His12-tagged VAMP8 (600RU); GST cleaved CALM_(ANTH) as analyte, 10 nM to 50 μM, one minute injections at 50 μl/min; PC/PE binding subtracted. Particulars: both partners purified. Background: Surface plasmon resonance follows binding to a sensor surface in real time, without labels.

The next data set has as its target GST-SNARE (WT or mutant). The data set is described as follows: ITC; VPiTC; 2 mM His6MycCALM_(ANTH) (WT or mutant) or GST cleaved Epsin_(ENTH) titrated in 37 injections of 4-8 μL into 0.15 mM GST-SNARE in the cell; 100 mM HEPES pH 7.4, 150 mM NaCl, 4 mM DTT; legends give a representative run with SEM of the fit, the text the average of all runs.
The target in data set [4] is T4, CALM_(ANTH(1-264)) part of the CALM_(ANTH(1-264)):VAMP8_((11-41)) chimera (rat, UniProt O55012 1-264).
T4 construct: PDB 3ZYM), VAMP8 11-41; also called CALM_(ANTH) in the chimeric complex; source: E. coli BL21(DE3) pLysS, purified (glutathione sepharose, thrombin cleavage of GST, S200 gel filtration); not shown: GST, N-terminal, cleaved
T4 sequence (looked up): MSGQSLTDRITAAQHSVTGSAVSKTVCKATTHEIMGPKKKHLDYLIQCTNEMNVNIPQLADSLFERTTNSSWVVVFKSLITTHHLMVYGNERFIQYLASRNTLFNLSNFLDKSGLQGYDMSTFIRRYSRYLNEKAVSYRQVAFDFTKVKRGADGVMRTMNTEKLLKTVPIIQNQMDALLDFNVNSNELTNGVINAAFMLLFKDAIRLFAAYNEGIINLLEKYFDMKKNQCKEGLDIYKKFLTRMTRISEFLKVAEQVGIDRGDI
The data set is described as follows: crystal structure; CALM_(ANTH(1-264)):VAMP8_((11-41)) chimera on one chain, GST cleaved; sitting drops at 16°C, 100 mM phosphate-citrate pH 4.2, 200 mM NaCl, 50% (v/v) PEG-200; 2.0 Å; PDB 3ZYM. Particulars: both partners purified.

Data set [5] concerns the target B2. Description: pull-down; SNARE complex formation: GST-VAMP8 incubated with a three fold molar excess of SNAP23 and syntaxin3 at 4°C for 48 hr in 20 mM HEPES pH 7.4, 500 mM NaCl, 4 mM DTT, 0.5% NP-40; purified on glutathione-sepharose, then S200 gel filtration. As to conditions: both partners purified.
The data set “GSTVAMP8 K24AM27A” has as its target B3. Described as above. Particulars: both partners purified.

B1: CALM_(ANTH(1-264)), GST cleaved (domain or fragment, rat, UniProt O55012 1-264, looked up)
chain: MSGQSLTDRITAAQHSVTGSAVSKTVCKATTHEIMGPKKKHLDYLIQCTNEMNVNIPQLADSLFERTTNSSWVVVFKSLITTHHLMVYGNERFIQYLASRNTLFNLSNFLDKSGLQGYDMSTFIRRYSRYLNEKAVSYRQVAFDFTKVKRGADGVMRTMNTEKLLKTVPIIQNQMDALLDFNVNSNELTNGVINAAFMLLFKDAIRLFAAYNEGIINLLEKYFDMKKNQCKEGLDIYKKFLTRMTRISEFLKVAEQVGIDRGDI
notes: source: E. coli BL21(DE3) pLysS, purified (glutathione sepharose, thrombin cleavage of GST, S200 gel filtration); not shown: GST, N-terminal, cleaved
What is called stoichiometry N is the number of molecules, sites or subunits per partner or assembly. Turning to B1, the “stoichiometry N” value in data set [1] came to 2.

As usually defined, the Kd is the concentration at which binding is half-saturated. Turning to B2, the binding result in the data set with SNAP23, GST cleaved is given as “binds”. Further, in data set [2], the Kd is ~18 µM and 17 µM and 20 µM.

For the molecule B3, the binding result with SNAP23, GST cleaved is “binds”.

B4: VAMP8_(1-76)His12, GST cleaved (domain or fragment, mouse, UniProt O70404 1-76, looked up)
chain: MEEASGSAGNDRVRNLQSEVEGVKNIMTQNVERILSRGENLDHLRNKTEDLEATSEHFKTTSQKVARKFWWKNVKM
notes: VAMP8, mouse, residues 1-76; Construct pGEX 4T2 VAMP8_((1-76))His12; also called His12-tagged VAMP8; His-tagged VAMP8; source: E. coli BL21(DE3) pLysS, purified (glutathione sepharose, thrombin cleavage of GST, Ni2+-NTA agarose, dialysis); not shown: GST, N-terminal, cleaved
Regarding B4, the Kd in data set [3] was 0.9 µM.

B5: GST-VAMP3 (VAMP3 residues 1-81) (domain or fragment)
chain: MSTGVPSGSSAATGSNRRLQQTQNQVDEVVDIMRVNVDKVLERDQKLSELDDRADALQAGASQFETSAAKLKRKYWWKNCK
In data set [2], B5 registered a Kd of 46 µM.

B6: GSTVAMP8 L44PL51P (domain or fragment, mouse, UniProt O70404 1-76, looked up)
chain: MEEASGSAGNDRVRNLQSEVEGVKNIMTQNVERILSRGENLDHPRNKTEDPEATSEHFKTTSQKVARKFWWKNVKM
notes: VAMP8, mouse, residues 1-76; source: E. coli BL21(DE3) pLysS, purified (glutathione sepharose, S200 gel filtration)
Take B6: binding in data set [2] was characterised by a dissociation constant (Kd) of 23 µM.

B7: GST-VAMP8_(10-41) (domain or fragment, mouse, UniProt O70404 10-41, looked up)
chain: NDRVRNLQSEVEGVKNIMTQNVERILSRGENL
notes: VAMP8, mouse, residues 10-41 (N-terminal half of the SNARE motif); Construct pGEX 4T2 VAMP8_((10-41)); also called residues 10-41 of VAMP8; source: E. coli BL21(DE3) pLysS, purified (glutathione sepharose, S200 gel filtration)
As for B7, binding in data set [2] was put at a Kd of 20 µM.

B8: His6MycCALM_(ANTH) (CALM ANTH domain, residues 1-289) (domain or fragment)
chain: MSGQSLTDRITAAQHSVTGSAVSKTVCKATTHEIMGPKKKHLDYLIQCTNEMNVNIPQLADSLFERTTNSSWVVVFKSLITTHHLMVYGNERFIQYLASRNTLFNLSNFLDKSGLQGYDMSTFIRRYSRYLNEKAVSYRQVAFDFTKVKRGADGVMRTMNTEKLLKTVPIIQNQMDALLDFNVNSNELTNGVINAAFMLLFKDAIRLFAAYNEGIINLLEKYFDMKKNQCKEGLDIYKKFLTRMTRISEFLKVAEQVGIDRGDIPDLSQAPSSLLDALEQHLASLEGKK
The molecule B8 registered a stoichiometry N with GST-SNARE (WT or mutant) of 0.9 to 1.1.

B9: VAMP8_((11-41)) part of the CALM_(ANTH(1-264)):VAMP8_((11-41)) chimera (domain or fragment, mouse, UniProt O70404 11-41, looked up)
chain: DRVRNLQSEVEGVKNIMTQNVERILSRGENL
notes: VAMP8, mouse, residues 11-41; also called VAMP8 helix; residues 11-41 of VAMP8; source: E. coli BL21(DE3) pLysS, purified (as part of the chimera)
On to B9, for which the binding result in data set [4] is listed as “binds”.

B10: syntaxin3 (residues 195-253), GST cleaved (domain or fragment, human, UniProt Q13277 195-253, looked up)
chain: EGRHKDIVRLESSIKELHDMFMDIAMLVENQGEMLDNIELNVMHTVDHVEKARDETKKA
notes: syntaxin3, human, residues 195-253; Construct pGEX 4T1syntaxin3_((195-253)) (human); also called syntaxin3_((195-253)); Synatxin3(195–253); source: E. coli BL21(DE3) pLysS, purified (glutathione sepharose, thrombin cleavage of GST); not shown: GST, N-terminal, cleaved
As for B10, the binding result (in data set [5]; with GSTVAMP8 K24AM27A) was “binds” in each case.

Values taken from PMC3267021, “The Molecular Basis for the Endocytosis of Small R-SNAREs by the Clathrin Adaptor CALM” (Cell, 2011).
